Data as given in article PMC12412624, “Engineered Cas12j‐8 is a Versatile Platform for Multiplexed Genome Modulation in Mammalian Cells”.

T1: Cas12j-8 WT (bacteriophage (metagenome))
T1 chain: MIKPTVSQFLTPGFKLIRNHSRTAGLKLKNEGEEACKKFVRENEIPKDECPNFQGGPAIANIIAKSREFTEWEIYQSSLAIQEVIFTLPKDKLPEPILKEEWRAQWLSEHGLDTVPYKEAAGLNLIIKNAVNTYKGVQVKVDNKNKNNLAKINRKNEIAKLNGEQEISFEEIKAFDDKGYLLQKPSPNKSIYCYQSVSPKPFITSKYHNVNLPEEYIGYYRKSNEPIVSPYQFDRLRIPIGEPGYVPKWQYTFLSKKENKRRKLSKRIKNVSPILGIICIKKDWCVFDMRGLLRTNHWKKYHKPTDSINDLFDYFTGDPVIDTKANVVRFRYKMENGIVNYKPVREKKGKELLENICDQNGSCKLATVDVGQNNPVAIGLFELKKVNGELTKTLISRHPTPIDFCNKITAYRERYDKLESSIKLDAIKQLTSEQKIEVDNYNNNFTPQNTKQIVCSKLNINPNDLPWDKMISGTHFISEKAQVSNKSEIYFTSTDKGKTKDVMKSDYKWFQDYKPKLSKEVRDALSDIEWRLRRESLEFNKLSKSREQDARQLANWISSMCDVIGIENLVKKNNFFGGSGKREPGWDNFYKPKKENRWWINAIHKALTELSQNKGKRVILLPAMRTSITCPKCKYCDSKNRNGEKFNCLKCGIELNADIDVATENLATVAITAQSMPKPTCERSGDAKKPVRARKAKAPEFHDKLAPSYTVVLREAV

T2: Cas12j-8 E258R+D313R+D495R+D527R+E547R (bacteriophage (metagenome), E258R;D313R;D495R;D527R;E547R)
T2 chain: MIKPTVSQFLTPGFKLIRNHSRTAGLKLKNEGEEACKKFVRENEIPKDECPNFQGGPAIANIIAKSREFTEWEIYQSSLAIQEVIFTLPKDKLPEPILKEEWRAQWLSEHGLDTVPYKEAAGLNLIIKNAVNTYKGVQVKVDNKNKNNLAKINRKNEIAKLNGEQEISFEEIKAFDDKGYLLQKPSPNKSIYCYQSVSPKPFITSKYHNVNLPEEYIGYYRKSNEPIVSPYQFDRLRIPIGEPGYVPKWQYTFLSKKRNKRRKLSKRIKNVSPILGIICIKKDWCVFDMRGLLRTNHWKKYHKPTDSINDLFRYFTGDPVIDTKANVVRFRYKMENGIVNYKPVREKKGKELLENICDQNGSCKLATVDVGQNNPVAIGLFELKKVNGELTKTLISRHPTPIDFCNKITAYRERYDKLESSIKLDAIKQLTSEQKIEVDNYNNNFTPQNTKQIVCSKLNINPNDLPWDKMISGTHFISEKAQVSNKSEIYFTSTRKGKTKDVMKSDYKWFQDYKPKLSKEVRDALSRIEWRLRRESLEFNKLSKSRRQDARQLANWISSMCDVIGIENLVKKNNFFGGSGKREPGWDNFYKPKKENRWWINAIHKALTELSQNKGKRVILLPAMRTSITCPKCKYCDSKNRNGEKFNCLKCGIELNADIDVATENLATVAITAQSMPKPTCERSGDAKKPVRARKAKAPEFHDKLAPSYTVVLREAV


Experiments:
Cas12j-8 WT = target: T1, Cas12j-8 WT; experiment: HEK293T cells; conditions: tags: NLS
[1] = target: T2, Cas12j-8 E258R+D313R+D495R+D527R+E547R; experiment: HEK293T cells; conditions: tags: NLS

| Binder | indel frequency (Cas12j-8 WT) | indel frequency [1] |
| --- | --- | --- |
| cd274site9 (mixed) RNA: CUUUCAAGACUAAUAGAUUGCUCCUUACGAGGAGACCUCAGGAUCUAAUCUCCUAA DNA 1: TTCCTCAGGATCTAATCTCCTAA DNA 2: TTAGGAGATTAGATCCTGAGGAA | 9.46 % indels | 34.3 % indels |
| sod1site5 (mixed) RNA: CUUUCAAGACUAAUAGAUUGCUCCUUACGAGGAGACAUUAUUAGGCAUGUUGGAGA DNA 1: TTCATTATTAGGCATGTTGGAGA DNA 2: TCTCCAACATGCCTAATAATGAA | 16.5 % indels | 59.7 % indels |
| cxcr4site5 (mixed) RNA: CUUUCAAGACUAAUAGAUUGCUCCUUACGAGGAGACGGAACUUCCUAUGCAAGGCA DNA 1: TTGGGAACTTCCTATGCAAGGCA DNA 2: TGCCTTGCATAGGAAGTTCCCAA | 35.6 % indels | 61.4 % indels |
| tcfsite3 (mixed) RNA: CUUUCAAGACUAAUAGAUUGCUCCUUACGAGGAGACCUAAACCAAGUCCCAGACAU DNA 1: TTCCTAAACCAAGTCCCAGACAT DNA 2: ATGTCTGGGACTTGGTTTAGGAA | 3.82 % indels | – |
| ccr5site9 (mixed) RNA: CUUUCAAGACUAAUAGAUUGCUCCUUACGAGGAGACAGAUCUGGUAAAGAUGAUUC DNA 1: TTGAGATCTGGTAAAGATGATTC DNA 2: GAATCATCTTTACCAGATCTCAA | 45.4 % indels | 72.7 % indels |
| apobsite4 (mixed) RNA: CUUUCAAGACUAAUAGAUUGCUCCUUACGAGGAGACGUGGCAAAUCCUCCAGAGAU DNA 1: TTGGTGGCAAATCCTCCAGAGAT DNA 2: ATCTCTGGAGGATTTGCCACCAA | 11.9 % indels | 27.8 % indels |
| cishsite2 (mixed) RNA: CUUUCAAGACUAAUAGAUUGCUCCUUACGAGGAGACGCUCACUCUCUGUCUGGGCU DNA 1: TTGGCTCACTCTCTGTCTGGGCT DNA 2: AGCCCAGACAGAGAGTGAGCCAA | – | 16.3 % indels |
| ccr5site10 (mixed) RNA: CUUUCAAGACUAAUAGAUUGCUCCUUACGAGGAGACCAUACAGUCAGUAUCAAUUC DNA 1: TTCCATACAGTCAGTATCAATTC DNA 2: GAATTGATACTGACTGTATGGAA | 4.92 % indels | – |
| apobsite9 (mixed) RNA: CUUUCAAGACUAAUAGAUUGCUCCUUACGAGGAGACCAAGCAGAAGCCAGAAGUGA DNA 1: TTGCAAGCAGAAGCCAGAAGTGA DNA 2: TCACTTCTGGCTTCTGCTTGCAA | 1.17 % indels | 15.6 % indels |
| vegfasite3 (mixed) RNA: CUUUCAAGACUAAUAGAUUGCUCCUUACGAGGAGACUGCUGUCUUGGGUGCAUUGG DNA 1: TTCTGCTGTCTTGGGTGCATTGG DNA 2: CCAATGCACCCAAGACAGCAGAA | 44.7 % indels | 77.4 % indels |
| apobsite10 (mixed) RNA: CUUUCAAGACUAAUAGAUUGCUCCUUACGAGGAGACGCAGGCGACCAGUGGGCGAG DNA 1: TTGGCAGGCGACCAGTGGGCGAG DNA 2: CTCGCCCACTGGTCGCCTGCCAA | 8.3 % indels | 22.1 % indels |
| vegfasite4 (mixed) RNA: CUUUCAAGACUAAUAGAUUGCUCCUUACGAGGAGACUUGUGCUGUAGGAAGCUCAU DNA 1: TTGTTGTGCTGTAGGAAGCTCAT DNA 2: ATGAGCTTCCTACAGCACAACAA | 5.55 % indels | – |
| cishsite3 (mixed) RNA: CUUUCAAGACUAAUAGAUUGCUCCUUACGAGGAGACACUGACAGCGUGAACAGGUA DNA 1: TTCACTGACAGCGTGAACAGGTA DNA 2: TACCTGTTCACGCTGTCAGTGAA | 2.97 % indels | 43.1 % indels |
| alas1site9 (mixed) RNA: CUUUCAAGACUAAUAGAUUGCUCCUUACGAGGAGACGCAUGACUCCAUCCCGAUCC DNA 1: TTGGCATGACTCCATCCCGATCC DNA 2: GGATCGGGATGGAGTCATGCCAA | 20 % indels | 44 % indels |
| pcsk9site5 (mixed) RNA: CUUUCAAGACUAAUAGAUUGCUCCUUACGAGGAGACUGUCACAGAGUGGGACAUCA DNA 1: TTGTGTCACAGAGTGGGACATCA DNA 2: TGATGTCCCACTCTGTGACACAA | 25.8 % indels | 61.2 % indels |
| alas1site3 (mixed) RNA: CUUUCAAGACUAAUAGAUUGCUCCUUACGAGGAGACGUGAUGAGGGAGUCUGAAUA DNA 1: TTGGTGATGAGGGAGTCTGAATA DNA 2: TATTCAGACTCCCTCATCACCAA | 10.1 % indels | 34.2 % indels |
| tgfbr2site8 (mixed) RNA: CUUUCAAGACUAAUAGAUUGCUCCUUACGAGGAGACCCAGGUUGAACUCAGCUUCU DNA 1: TTCCCAGGTTGAACTCAGCTTCT DNA 2: AGAAGCTGAGTTCAACCTGGGAA | 14.8 % indels | 51.6 % indels |
| tigitsite4 (mixed) RNA: CUUUCAAGACUAAUAGAUUGCUCCUUACGAGGAGACUAGGACCUCCAGGAAGAUUC DNA 1: TTCTAGGACCTCCAGGAAGATTC DNA 2: GAATCTTCCTGGAGGTCCTAGAA | – | 28.3 % indels |
| cxcr4site8 (mixed) RNA: CUUUCAAGACUAAUAGAUUGCUCCUUACGAGGAGACAGCACAUCAUGGUUGGCCUU DNA 1: TTCAGCACATCATGGTTGGCCTT DNA 2: AAGGCCAACCATGATGTGCTGAA | 10.9 % indels | 36.5 % indels |
| tcfsite8 (mixed) RNA: CUUUCAAGACUAAUAGAUUGCUCCUUACGAGGAGACCAGGCUCUGACUCAGGGAAG DNA 1: TTGCAGGCTCTGACTCAGGGAAG DNA 2: CTTCCCTGAGTCAGAGCCTGCAA | 2.92 % indels | – |
| ccr5site4 (mixed) RNA: CUUUCAAGACUAAUAGAUUGCUCCUUACGAGGAGACCUUCUUACUGUCCCCUUCUG DNA 1: TTCCTTCTTACTGTCCCCTTCTG DNA 2: CAGAAGGGGACAGTAAGAAGGAA | 28.2 % indels | 68.7 % indels |
| ccr5site5 (mixed) RNA: CUUUCAAGACUAAUAGAUUGCUCCUUACGAGGAGACGAAAUACAAUGUGUCAACUC DNA 1: TTGGAAATACAATGTGTCAACTC DNA 2: GAGTTGACACATTGTATTTCCAA | 12.1 % indels | 54 % indels |
| cd274site6 (mixed) RNA: CUUUCAAGACUAAUAGAUUGCUCCUUACGAGGAGACGUUGUGGAUCCAGUCACCUC DNA 1: TTGGTTGTGGATCCAGTCACCTC DNA 2: GAGGTGACTGGATCCACAACCAA | 21 % indels | 59.2 % indels |
| angptl3site12 (mixed) RNA: CUUUCAAGACUAAUAGAUUGCUCCUUACGAGGAGACCAGUCUUCCAACUCAAUUCG DNA 1: TTCCAGTCTTCCAACTCAATTCG DNA 2: CGAATTGAGTTGGAAGACTGGAA | – | 22.2 % indels |
